Results on 6 compounds are retold here after article PMC9934059, “Characterization of a glycan-binding complex of minor pilins completes the analysis of Streptococcus sanguinis type 4 pili subunits” (Proceedings of the National Academy of Sciences of the …, 2023).

In assay [1] the target is 6His–PilC (Streptococcus sanguinis 2908). The experiment in a line: ITC; MicroCal ITC200; average ± SD of three (mutants: 2 to 3) independent experiments. (In general: In ITC the heat of successive injections is recorded.)
For assay [2], the target named is 6His–PilA (Streptococcus sanguinis 2908). The experiment in a line: SEC-MALS; ÄKTA Prime, S200 10/300 GL column, Wyatt MALS detector; 6His–PilA and 6His–PilC separately and after mixing equimolar amounts.
Assay [3] has as its target 6His–PilC (Streptococcus sanguinis 2908). The description is as above.
The next assay has as its target 6His–PilC. The experiment in a line: ITC. The settings on record: parent: est. 1.0; read off a plot.
Assay [4] concerns the target T1, PilC (Streptococcus sanguinis, UniProt A0A0B7GRV8).
T1 construct: 6His–PilCΔpilin (lacking the pilin moiety; Ig-like and lectin modules), strain 2908
The experiment in a line: ITC (three independent experiments); supported by glycan microarray. The format is binding.

Assay [5] addresses T2, PilC (Streptococcus sanguinis, UniProt A0A0B7GRV8, K358A).
T2 construct: PilCΔpilin (lacking the pilin moiety), strain 2908
T2 sequence (A0A0B7GRV8 122-486 K358A): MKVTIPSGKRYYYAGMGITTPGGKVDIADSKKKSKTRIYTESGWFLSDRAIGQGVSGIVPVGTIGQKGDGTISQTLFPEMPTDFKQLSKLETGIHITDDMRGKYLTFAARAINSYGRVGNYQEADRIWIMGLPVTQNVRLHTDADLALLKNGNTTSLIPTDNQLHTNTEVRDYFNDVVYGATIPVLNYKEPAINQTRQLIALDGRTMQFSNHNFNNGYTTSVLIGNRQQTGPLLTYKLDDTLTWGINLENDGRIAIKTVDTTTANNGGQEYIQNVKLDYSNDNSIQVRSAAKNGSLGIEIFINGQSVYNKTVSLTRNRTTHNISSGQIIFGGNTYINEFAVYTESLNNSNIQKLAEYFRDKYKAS
In words: ITC of mutant, KD ratio to WT (reduced affinity). The format is binding.

For the compound 6His–PilA (domain or fragment), the Kd (usually the equilibrium constant for the complex coming apart) in assay [1] is 0.0238 µM. The stoichiometry N (commonly a count of units in the complex or per binding partner) was 2 in assay [2] and 1 in assay [3].
As for 6His–PilA A68S, in the assay with 6His–PilC, the ratio to parent worked out at 0.87.
For 6His–PilA K85A, the ratio to parent with 6His–PilC was found to be 0.98.
Compound `CC(=O)N[C@H]1[C@H]([C@H](O)[C@H](O)CO)O[C@@](O[C@H]2[C@@H](O)[C@@H](CO)O[C@@H](O[C@H]3[C@H](O)[C@@H](O)C(O)O[C@@H]3CO)[C@@H]2O)(C(=O)O)C[C@@H]1O` (stereo partly drawn) [3′-SL, 3′-sialyllactose] returned a Kd on PilC [4] of 79.1 ± 0.36 µM. For the same compound, the “% of WT binding” value on PilC [5] is recorded as 39.3 ± 1.4 % of WT binding.
In turn, `CC(=O)N[C@H]1[C@H]([C@H](O)[C@H](O)CO)O[C@@](O[C@H]2[C@@H](O)[C@@H](CO)O[C@@H](O[C@H]3[C@H](O)[C@@H](NC(C)=O)C(O)O[C@@H]3CO)[C@@H]2O)(C(=O)O)C[C@@H]1O` (stereo partly drawn) [3′-SLN, 3′-sialyl-N-acetyllactosamine] gave a Kd on PilC [4] of 144 ± 7.36 µM.
Turning to “PilA_(T87A) (from UniProt A0A0B7GNW3 33-164) (domain or fragment)”, the percent of the wild-type (WT) binding (KD ratio to the WT) in assay [1] worked out at 38.3%.
